Measurements reported in paper PMC4132890.

Biological target: ryanodine receptors (rat (endogenous in rat ventricular myocytes)) (UniProt B0LPN4)
Assay: fluorescence wash-in and wash-out in permeabilized myocytes

Chain of UniProt B0LPN4 (B0LPN4 whole entry): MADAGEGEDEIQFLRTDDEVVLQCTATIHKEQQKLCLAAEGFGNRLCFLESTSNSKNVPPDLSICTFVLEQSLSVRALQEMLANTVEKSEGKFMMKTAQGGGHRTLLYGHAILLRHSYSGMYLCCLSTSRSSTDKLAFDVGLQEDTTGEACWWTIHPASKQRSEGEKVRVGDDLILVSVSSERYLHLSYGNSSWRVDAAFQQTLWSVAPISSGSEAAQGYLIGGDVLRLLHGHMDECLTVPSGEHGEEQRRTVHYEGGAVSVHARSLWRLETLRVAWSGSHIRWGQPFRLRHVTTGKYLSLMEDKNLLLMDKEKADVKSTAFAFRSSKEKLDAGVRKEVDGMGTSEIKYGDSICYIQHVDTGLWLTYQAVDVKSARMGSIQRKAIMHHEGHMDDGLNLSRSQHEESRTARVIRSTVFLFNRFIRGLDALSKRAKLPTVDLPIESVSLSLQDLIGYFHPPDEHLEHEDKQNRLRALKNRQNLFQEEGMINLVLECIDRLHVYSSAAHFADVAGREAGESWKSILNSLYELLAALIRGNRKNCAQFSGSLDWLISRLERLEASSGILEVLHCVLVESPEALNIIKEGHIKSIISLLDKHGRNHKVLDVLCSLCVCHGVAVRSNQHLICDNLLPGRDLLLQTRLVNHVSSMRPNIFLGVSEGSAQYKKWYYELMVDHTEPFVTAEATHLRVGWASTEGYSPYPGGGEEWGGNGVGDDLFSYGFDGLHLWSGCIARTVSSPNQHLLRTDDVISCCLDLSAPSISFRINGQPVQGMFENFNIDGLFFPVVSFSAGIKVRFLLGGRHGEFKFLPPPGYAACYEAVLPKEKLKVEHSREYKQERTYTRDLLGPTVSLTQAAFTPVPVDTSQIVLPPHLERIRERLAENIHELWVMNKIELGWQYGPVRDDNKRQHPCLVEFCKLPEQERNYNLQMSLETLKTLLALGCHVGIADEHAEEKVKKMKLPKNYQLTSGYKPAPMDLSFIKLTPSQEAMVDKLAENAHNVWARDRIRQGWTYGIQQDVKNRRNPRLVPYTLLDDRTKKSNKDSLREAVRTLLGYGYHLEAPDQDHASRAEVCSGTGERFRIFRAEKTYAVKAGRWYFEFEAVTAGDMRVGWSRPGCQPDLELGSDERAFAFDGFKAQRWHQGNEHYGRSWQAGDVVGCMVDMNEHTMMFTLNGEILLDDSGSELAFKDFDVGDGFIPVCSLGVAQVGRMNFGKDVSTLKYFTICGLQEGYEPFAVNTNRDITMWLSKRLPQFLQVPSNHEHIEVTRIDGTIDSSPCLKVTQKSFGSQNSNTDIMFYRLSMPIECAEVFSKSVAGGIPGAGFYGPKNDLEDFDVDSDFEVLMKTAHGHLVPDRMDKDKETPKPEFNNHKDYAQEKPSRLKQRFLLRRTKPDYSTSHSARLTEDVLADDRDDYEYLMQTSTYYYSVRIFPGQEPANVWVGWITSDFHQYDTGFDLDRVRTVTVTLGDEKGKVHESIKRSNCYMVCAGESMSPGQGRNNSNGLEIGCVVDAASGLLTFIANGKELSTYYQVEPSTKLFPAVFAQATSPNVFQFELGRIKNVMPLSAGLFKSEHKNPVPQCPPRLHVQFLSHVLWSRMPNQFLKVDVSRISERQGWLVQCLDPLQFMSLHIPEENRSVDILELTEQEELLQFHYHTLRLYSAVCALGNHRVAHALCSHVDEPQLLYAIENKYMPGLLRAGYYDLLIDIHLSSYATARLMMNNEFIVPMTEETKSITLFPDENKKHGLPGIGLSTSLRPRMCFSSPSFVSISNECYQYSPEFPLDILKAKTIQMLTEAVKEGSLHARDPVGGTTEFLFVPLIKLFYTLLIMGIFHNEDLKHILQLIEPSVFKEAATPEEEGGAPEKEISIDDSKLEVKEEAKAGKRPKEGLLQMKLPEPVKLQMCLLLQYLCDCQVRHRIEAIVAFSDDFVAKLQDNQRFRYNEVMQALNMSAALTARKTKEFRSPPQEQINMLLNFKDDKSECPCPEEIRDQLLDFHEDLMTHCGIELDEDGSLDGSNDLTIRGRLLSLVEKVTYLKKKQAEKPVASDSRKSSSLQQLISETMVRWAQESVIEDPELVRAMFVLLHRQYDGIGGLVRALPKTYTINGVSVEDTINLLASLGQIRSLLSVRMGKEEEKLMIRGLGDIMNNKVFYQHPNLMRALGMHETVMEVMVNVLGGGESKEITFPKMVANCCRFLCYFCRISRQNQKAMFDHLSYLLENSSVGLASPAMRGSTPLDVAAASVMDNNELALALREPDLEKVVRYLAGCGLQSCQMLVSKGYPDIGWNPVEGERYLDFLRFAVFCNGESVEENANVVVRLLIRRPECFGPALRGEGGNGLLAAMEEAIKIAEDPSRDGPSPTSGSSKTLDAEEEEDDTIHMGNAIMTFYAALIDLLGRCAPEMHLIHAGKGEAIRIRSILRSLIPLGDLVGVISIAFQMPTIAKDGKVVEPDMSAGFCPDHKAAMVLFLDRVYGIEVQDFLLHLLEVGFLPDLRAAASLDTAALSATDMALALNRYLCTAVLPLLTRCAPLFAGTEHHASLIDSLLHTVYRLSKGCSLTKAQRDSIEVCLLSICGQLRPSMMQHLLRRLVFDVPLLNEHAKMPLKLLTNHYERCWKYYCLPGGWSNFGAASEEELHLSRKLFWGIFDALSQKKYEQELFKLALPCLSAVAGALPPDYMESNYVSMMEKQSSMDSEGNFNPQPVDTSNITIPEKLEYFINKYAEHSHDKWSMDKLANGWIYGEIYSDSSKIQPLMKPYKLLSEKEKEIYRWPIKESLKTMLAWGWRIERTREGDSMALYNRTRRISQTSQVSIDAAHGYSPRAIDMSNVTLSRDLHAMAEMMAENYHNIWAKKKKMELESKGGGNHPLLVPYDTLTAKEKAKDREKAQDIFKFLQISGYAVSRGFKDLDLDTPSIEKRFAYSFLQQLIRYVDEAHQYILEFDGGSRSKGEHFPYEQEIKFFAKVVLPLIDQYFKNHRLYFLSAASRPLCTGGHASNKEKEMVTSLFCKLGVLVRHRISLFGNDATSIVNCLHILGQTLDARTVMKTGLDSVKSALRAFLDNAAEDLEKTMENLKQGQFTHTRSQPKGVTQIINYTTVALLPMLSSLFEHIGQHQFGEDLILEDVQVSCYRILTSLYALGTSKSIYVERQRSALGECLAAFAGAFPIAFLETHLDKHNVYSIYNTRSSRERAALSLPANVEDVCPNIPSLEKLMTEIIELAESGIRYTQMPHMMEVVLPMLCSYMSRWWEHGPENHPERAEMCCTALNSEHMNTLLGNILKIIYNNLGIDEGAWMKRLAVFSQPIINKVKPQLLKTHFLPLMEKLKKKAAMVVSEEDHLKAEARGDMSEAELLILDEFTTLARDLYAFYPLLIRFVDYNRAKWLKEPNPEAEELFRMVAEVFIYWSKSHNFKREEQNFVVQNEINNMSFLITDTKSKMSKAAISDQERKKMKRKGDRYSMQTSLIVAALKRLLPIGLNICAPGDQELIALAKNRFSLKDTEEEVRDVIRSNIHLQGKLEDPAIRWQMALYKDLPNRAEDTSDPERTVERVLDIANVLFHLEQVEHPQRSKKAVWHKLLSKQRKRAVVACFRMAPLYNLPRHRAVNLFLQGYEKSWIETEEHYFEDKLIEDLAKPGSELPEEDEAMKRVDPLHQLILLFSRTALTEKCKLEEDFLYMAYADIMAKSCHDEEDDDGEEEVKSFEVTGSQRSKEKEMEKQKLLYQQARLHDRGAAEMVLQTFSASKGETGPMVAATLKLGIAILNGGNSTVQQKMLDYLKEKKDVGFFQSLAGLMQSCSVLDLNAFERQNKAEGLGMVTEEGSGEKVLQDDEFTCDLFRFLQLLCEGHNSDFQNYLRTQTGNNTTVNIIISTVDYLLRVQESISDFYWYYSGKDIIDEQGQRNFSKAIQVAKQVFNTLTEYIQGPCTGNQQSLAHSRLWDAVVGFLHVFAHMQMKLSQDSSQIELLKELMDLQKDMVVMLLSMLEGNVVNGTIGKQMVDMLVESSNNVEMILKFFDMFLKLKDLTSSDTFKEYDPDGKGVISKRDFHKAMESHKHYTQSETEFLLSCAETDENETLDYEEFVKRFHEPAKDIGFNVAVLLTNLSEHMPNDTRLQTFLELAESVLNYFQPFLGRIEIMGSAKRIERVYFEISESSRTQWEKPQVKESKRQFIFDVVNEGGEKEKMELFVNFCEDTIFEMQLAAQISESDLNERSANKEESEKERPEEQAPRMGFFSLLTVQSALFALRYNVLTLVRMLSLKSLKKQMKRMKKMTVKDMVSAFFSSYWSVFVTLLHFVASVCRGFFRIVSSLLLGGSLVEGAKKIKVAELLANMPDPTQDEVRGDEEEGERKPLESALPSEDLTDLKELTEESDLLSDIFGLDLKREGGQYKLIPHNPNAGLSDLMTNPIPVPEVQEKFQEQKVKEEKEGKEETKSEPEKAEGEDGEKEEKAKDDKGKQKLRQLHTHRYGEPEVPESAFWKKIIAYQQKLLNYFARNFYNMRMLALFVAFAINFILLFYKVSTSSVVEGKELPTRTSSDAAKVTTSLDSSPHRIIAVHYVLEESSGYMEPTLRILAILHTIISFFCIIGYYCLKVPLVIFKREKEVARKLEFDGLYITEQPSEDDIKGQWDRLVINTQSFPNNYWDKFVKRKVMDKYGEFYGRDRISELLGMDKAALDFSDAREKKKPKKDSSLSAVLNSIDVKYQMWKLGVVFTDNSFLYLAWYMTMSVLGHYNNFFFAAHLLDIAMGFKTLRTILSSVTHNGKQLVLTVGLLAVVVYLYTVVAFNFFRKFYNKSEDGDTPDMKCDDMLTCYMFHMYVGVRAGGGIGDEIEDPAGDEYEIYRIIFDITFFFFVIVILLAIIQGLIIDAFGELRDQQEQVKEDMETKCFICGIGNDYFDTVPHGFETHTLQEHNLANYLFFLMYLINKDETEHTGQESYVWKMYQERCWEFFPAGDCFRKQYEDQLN

Kd	Substance
43.8 nM	GCaMP2.2Low-FKBP12.6
15.5 nM	GCaMP2.2-FKBP12.6
